Measured values reported in the domain aggregation screens of Martell et al. (2025).

Test: soluble fraction after stress (log2 fold change); higher = more stays soluble; pooled small domains, quantitative proteomics
Details: stress: 50 degC
Method in brief: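 Custom libraries of small protein domains were pooled and measured in a high-throughput format, with quantitative proteomics as the read-out. Each library was stressed at 50°C. The value is the log2 fold change in the amount of each protein that stays soluble after stress, used as a measure of aggregation propensity; higher values mean more of the protein stays soluble.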

Sequence | soluble fraction (log2)
HMQMTKSEFLDALRRALNGNMAAASVDDNIRFYDSYFYTEETKGRSEAEILSELGDPRILARTLIDAAD | 0.0125
HMQVSDLSAIDSLIDKVLSEQQAAVQDFRSGQGKAMGFLIGKVMQASDGKANPKVIRELMGKKLA | 0.159
HMTISIAEQIFEQLEREILSGAYPRGELLTETKLSEKLGVSRTPIREALRRLDQEHIIKMTTKGAFVLGI | -2.04
HMASINRIENKNGKVVYRIIVSLGYDKQGKKLKKTITYNVNQTATKKQQENEALKYALDIEDKIKNGHD | -1.44
HMGETDDDFRELEEFVEKTKFDKLGTFMYSKEEGTPAARLPEQIHGNTKKSRYNKIMSIQQKVSNEN | -0.0112
HMLGIGANVQKIAQERKISLKELSRRAGIPYTTIYNMVKRDSSRVSPENLQKLADALGVEIGKLYG | 0.0652
HMGLKQADFEELASRIFTVLEEKSMTPAEIVRKLNLEPDRISIVIQYLLDEGKLNIKDGFINNSA | -0.107
HMKVNIGDQVYNQMKDQIMSGVWVPGEKIPSENQLMEVFGVSRGTVRQAIQKLSAVGLLETRRGEGSYVGQ | -0.115
HMNMEDIADKIGRLYDNLPDDLKLMIKYRDIDDMTYDEIARKANLPIGTVRSRLHRARDILLREI | -0.647
HMQYALEDDLDSAIKLLTGKGLSGTVAWGWSDTYINVGKKSYSMEFIAKMLLRLGEGSRVTIQVDPA | -4.68
HMFYPIAHTLTKLNIRSGPGEQYQKLATFENNHDLVVLTQQNEWVQVRGKSDEQVIIGWVHSSFLSPT | -1.09
HMEEKTMNLPPSAKLVYKILSYEGNLTQKEIINMTYLPERTVRHALELLLGKRLITRQAYLNDARQSVYG | -1.66
HMDIEFSDELRTFIDEWSKKEGGLVMMLHRIQNEYGFIPRTAAEKLSLISGIPLARIYGVITFYHFFKT | -0.461
HMTDLDDFAARLKTLTDGRASTPRLRDGVMMLSLDVGGLGPDQRDGLIAAIREGGLTVPGVSDVRIVMT | 0.0757
HMAREFPGTIIKRGSRGPDVRWIQQHIGVKLVDGVFGRGTERAVKQFQSRRRLKADGIVGRQTWAAIHN | -0.999
HMSAAIGEAVIATDEINVRSGPGLSHEIVSVVSRNESYPILEERGDWVQIQLNGGQKGWVVSWLIKKKS | 0.169
HMVVSDKIAFSSFLKSVEDGRVVEVEITGNDIRGILSDGTVFNTYAPNDPNLVEKLTSKGVNITALPKE | 0.19
HMNLSDIETWLRELSLEKYALAFSEAEIDFETLPELTEDDLKEVGLPVGPRRKVWGAIQLLRTTD | -1.42
HMAESLHVTAAALFEGRAMLGIDGSRRLLRVGETSPEGVKLVSATAREAVIEIDGRRQTLAPGRDT | 0.0658
HMKIKAKYTTDFGIRIYAPKPGKNYWRISYVDLDGKLRDTTATSEKTALDKSAEIEVLLRNN | -1.89
HMIVVLKHGVTEQQMRNLIAWFKDQGVDVHVSRGIYQTVLGLVGDTSDIDVDLLRMLDIVDAVKRIT | -1.76
HMSVLRLGNRGPDVRKLQLLLNSTLVPSPQLTVDGDFGKRTEQAVVTFQQMRGLPQDGIVGQRTWALLGQT | -0.518
HMVVMKGKVKWFNKNKGYGFIITDDNKEYFVHWKSIVTNSPRELKVLEQDELVTFDLMETDKGIQAINII | -2.14
HMKQLQIPYSFAKRHGVLLRYEGDQAFIVRRDNTSMLALQEARRLLGHPAHYLLYSEQEFNQLLSASFA | -2.7
HMSELDSYIGARLRMRRLMLGMSQEALGEKLSLTFQQIQKYEKGTNRVSASRLYELAQVLDVPVQFFFDGA | -2.93
HMELNEMEAWSLVSKALRNGTYGAVEEFSRLPPTVQEAVGNPDNLRNWATSDYKAIETVIQSNFIKTY | -0.12
HMGTGVEQGKQYRTLKRDFDGASGIKVNGDFYRLRTSDTGMTELPAGTEVTFERFDGTTAVVHT | -0.0841
HMPKPMKATKITLQQEPRIRVDFTYDPLKVQQIKTISGARWSKSLKAWHIPYTKEAFNQLKKLFPNVEIEV | -0.166

Sequence | soluble fraction (log2)
HMEDPLAAQWKQGRKLFHDDYGYGIISKAFTAGDELVIMVQFENGGEKRFLPKYQAHNLLLVEQ | -0.218
HMFNDPTMEDALVNLKGITNEVLSYLSSSKIKKLEELAEMSVPELKDIVENISDDEASALIMEARKPWF | -0.113
HMGTQKVQVVNGPINVRSGPGPTFEKIGMVEDQAVYQVVSKKDDWFQISLPGNKTAWVAGWLVKEIK | 0.0417
HMQNSLKAFRVKRGLTTSALSRLTNGEFSTSRISNYETGVRALTIDAAKKLAPHLGASPAQLLNL | -0.357
HMSAAMTESVLDGIPGLGATRKAALLAHFGSVRKLRAATSEQVREVPGIGPRLAETILATLHEP | -0.181
HMGAAITEAEAKQIALDHAGVSESETERMRVKLGRDDGVQEYEVNFYVGNREYDYDINAATGEIRSHDSE | 0.0811
HMELLEVSVIIREADSTGWSAARQGMEQAAADLGAELRFLTLSQSNSAEEQRSLLAREVEGGADAVVLV | -0.142
HMHTGLTNYEYKQIKSSLLKILTQSESMRLGELVDKVDQFESEKVTTVIRFLVGNEELMLFDDTLTLKKQL | 0.0246
HMGNWENVEKETTEAIMAVKNGEAVWVDLAPANRMIRQMQHELVEQYGLLSQSYGKEPKRRIRIFQNP | -0.337
HMVVEDDTVLQAVKQAIEENPEAVSDYFEGKSKALNFLVGQVMRITRGKADPAKTNQMVVEELKNR | 0.111
HMIIDPQIRTLWTSQIIDILKSNPKRSIRSILELYPSNKESWVLIILQELIGEEKIIRDLDYLYFNK | -2.22
HMTAEVIYVDVGGEVNQPSVVELTDGSRVTDAIAAAGGLTEKADLTDINRAAFVSDGEKIFIPSQEE | -0.0513
HMNTISTLEITTKKDIRILDESELLKSKSSKNNIFNYLLASGDFNLLKDKLNEIDEFSDEIISYQLN | -0.611
HMGLAALLQSGPVAGTVLSHQPGGKVVIAFQGQAYPLNLKGRTLQPGQSVLARMAGEQISLEVI | -0.289
HMDAHIGTLTPRERETLHHLAIGHSNKVIAKKLNLAESTVKAYVQSILRKLGLSSRVQAAVYAIQHDIR | -0.205
HMSEKYPPIDWNNIKTGQSVLIKDINQVVSLTKLPDSKGFAEVQMGLIKTKIKAEKLAATDKKPNK | 0.0917
HMHGSTAVVPQIKNMPYSEASVRLGANGLAIEINDSVYDRDMPPGTVIESWPKAGAVVKQGRQVYVTVTA | -0.221
HMDYENGTVKWFNTKKGYGFITRENGEDLFVHFRNIKGRGRRSLNDGEPVTFVVIEGDKGLQADQVSA | -0.025
HMVDIQTGQKVRIHTSQFAGKIGNITALNVKSAELPNGIRTATASILMQSNENVMLPVSNFDIIE | 0.0434
HMPLIPIAIELARHALPSLIGAIAGDKSEKVAKEVVDAALKTTGKTTPDEALHALQADPQLAHEYRLSLL | 0.287
HMVLTGTIKKYNNERGFGFISTSNFGDVFFHIKDFQKGEQPIPGREVYFEVVKKENKKRAIHVYYSD | -1.02
HMTEPLTKREKEVLLLLPRGLTAKAMASELFLTEATIKSHLAAIFRKFKVVNRTQAIAIAVESKILT | -2.33
HMVIIPNILNKYKGLAFRQLEQVGLKIGDTIYEPNIQRDAVLRMQINGRSVQPGDQVMRFSVVDLVIG | -3.21
HMSMVGNIEKILVTGESKKSSELLAGRTENNRVVNFTGEKVLIGSMVNVRIEEVFPNSLGGSYLPS | -0.16
HMQFSAVVLDMETRRQVAGVAVYINPKGVVKTDMRGRFVIDGAFNSVTLVRQGYESLTLERSEMTDSIWM | -1.65
HMADLKRLNEQIHYLGQYLSTKATYKEFLQANNKKIYRSEHQDEIAKYEEAAQFLKRSSPDGTIPTMKDLR | -0.0887
HMVKSSVTEVISMINALPVTVKPEDKADIISARMAYDTLTEDEKALVTNYEILTAAETRFNELIATT | 0.205
